Measurements as given in patent US20250257332A1, “TRUNCATED AND FUSION PROTEINS” (Monash University, priority 2021, published 2025).
“Also recorded” adds a separate entry of the source.

Experiments:
[1] = target: T1, recombinant mouse CCR5 (Mus musculus, UniProt P51682); assay: NAMPT competitive binding to CCR5 (ELISA)
T1 construct: purchased MyBioSource
Description: hrNAMPT competitive binding to mrCCR5: ELISA plates (Medium binding, Greiner Bio-One) were coated with 1% BSA or 20 nM of recombinant mouse CCR5 (MyBioSource) in PBS overnight at 4° C. Then, wells were blocked for 1 h at room temperature with 1% BSA in PBS containing 0.05% Tween-20 (PBS-T). Wells were washed 3 times with PBS-T and further incubated with hNAMPTcif at increasing concentration (0 nM to 100 nM) for 1 h in PBS-T with 0.1% BSA containing 100 nM hrNAMPT (1) (Peprotech). Bound hrNAMPT (1) molecules were detected using a biotinylated antibody for NAMPT and HRP-streptavidin (Human PBEF/Visfatin DuoSet ELISA, R&D Systems). Signals obtained on BSA-coated wells were used to remove non-specific binding for each hrNAMPT concentrations to obtain specific binding values. Specific binding data were fitted by non-linear regression with Prism 7 to obtain the half maximal inhibitory concentration (IC50) of hNAMPTnif using A450nm=A450nmMin+(A450nmMax−A450nmMin)/(1+10^(X-LogIC50)).

[2] = test system: C2C12 murine myoblast cells; assay: C2C12 cell proliferation, CyQuant Proliferation Assay kit; type: cell-based, mouse; settings: 48 hours
Description: FIG. 7. Human NAMPT variants stimulate muscle progenitor proliferation. C2C12 mouse myoblasts were treated with 20 nM full length NAMPT (NAMPT) or NAMPT variants for (NAMPTxxx-xxx, where xxx are amino acid numbers) 48 hours. Quantification of cell proliferation was performed using CyQuant Proliferation Assay kit. […] Box and whiskers denote median with minimum and maximum values. n=4-5 independent experiments per protein. Statistical significance is indicated as exact p-value. […] Significance between conditions were analysed by one-way ANOVA with Tukey post-hoc test.
Human NAMPTcif (hNAMPTcif) and truncated variants of hNAMPTcif were designed by progressively removing N-terminal regions containing positively charged amino acids. Four truncations were produced and numbered T1 to T4. Recombinant protein was produced using a bacterial expression system. hNAMPTcif variants were purified by FPLC using His-tag affinity purification. Cell proliferation assays were performed using C2C12 murine myoblast cells treated with purified recombinant hNAMPTcif variants, as well as full length NAMPT. Cells were treated with 10 nM of recombinant protein for 48 hours in DMEM supplemented with 2% foetal bovine serum at 37° C., 5% CO2. PBS treatment was used as a negative control. 10% foetal bovine serum was used as positive control. Quantification of proliferation was performed using commercially-available CyQuant Proliferation Assay kit (Thermo Fisher Scientific) according to manufacturer's instructions and read using a Synergy H1 plate reader (BioTek). Data were presented as percentage increase versus.
The heparin-binding sequence of placenta growth factor 2 (PIGF2) was fused to the N-terminus of NAMPTcif and produced using a bacterial expression system. PIGF-NAMPTcif was purified by FPLC using His-tag affinity purification followed by size exclusion chromatography. Cell proliferation assays were performed using C2C12 murine myoblast cells treated with purified recombinant NAMPTcif and full length NAMPT. Cells were treated with 2 nM, 10 nM and 20 nM concentrations of recombinant protein for 48 hours in DMEM supplemented with 2% foetal bovine serum at 37° C., 5% CO2. PBS treatment was used as a negative control. 10% foetal bovine serum was used as positive control. Quantification of proliferation was performed using commercially-available CyQuant Proliferation Assay kit (Thermo Fisher Scientific) according to manufacturer's instructions and read using a Synergy H1 plate reader (BioTek). Data were presented as percentage increase versus negative control. A two-tailed unpaired t-test was used to determine statistical significance.

[3] = target: T2, TLR4 (Homo sapiens, UniProt O00206); assay: TLR4 signalling assay in HEK-Blue TLR4 reporter cells; type: cell-based; settings: 19 nM; 24 hours; plus 5 ug/ml polymyxin B; listed as NAMPTcif
T2 construct: host or cells: HEK-Blue TLR4 reporter cell line
T2 sequence (O00206 24-839): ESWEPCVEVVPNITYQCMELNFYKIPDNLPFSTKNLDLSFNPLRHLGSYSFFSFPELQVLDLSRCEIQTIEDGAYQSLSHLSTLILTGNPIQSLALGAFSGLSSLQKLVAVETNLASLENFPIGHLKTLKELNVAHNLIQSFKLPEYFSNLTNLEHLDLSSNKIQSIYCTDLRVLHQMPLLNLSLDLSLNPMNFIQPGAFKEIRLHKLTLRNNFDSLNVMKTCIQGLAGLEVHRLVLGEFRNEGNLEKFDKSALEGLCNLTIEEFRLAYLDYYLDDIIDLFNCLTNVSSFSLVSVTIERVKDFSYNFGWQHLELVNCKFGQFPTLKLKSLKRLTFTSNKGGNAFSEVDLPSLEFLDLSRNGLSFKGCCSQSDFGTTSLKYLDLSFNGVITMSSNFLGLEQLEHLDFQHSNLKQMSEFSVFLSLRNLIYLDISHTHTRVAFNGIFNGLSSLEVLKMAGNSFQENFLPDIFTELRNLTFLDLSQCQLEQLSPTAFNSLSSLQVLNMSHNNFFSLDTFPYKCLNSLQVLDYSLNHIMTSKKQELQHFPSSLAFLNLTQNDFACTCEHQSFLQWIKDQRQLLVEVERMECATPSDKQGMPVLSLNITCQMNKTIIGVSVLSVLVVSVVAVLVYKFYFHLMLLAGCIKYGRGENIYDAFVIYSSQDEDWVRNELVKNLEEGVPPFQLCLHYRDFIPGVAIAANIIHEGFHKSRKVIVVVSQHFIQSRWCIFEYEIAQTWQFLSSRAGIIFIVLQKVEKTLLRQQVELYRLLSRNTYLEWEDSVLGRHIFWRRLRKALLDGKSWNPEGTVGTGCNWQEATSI
T2 sequence (Q9Y6Y9 17-160 partner limits assumed): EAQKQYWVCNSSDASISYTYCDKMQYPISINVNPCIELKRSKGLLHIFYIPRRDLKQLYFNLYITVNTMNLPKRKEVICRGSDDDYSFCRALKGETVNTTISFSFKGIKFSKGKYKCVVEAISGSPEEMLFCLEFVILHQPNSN
Description: TLR4 receptor activation was assayed using the HEK-Blue TLR4 reporter cell line (InvivoGen). In this cell line, TLR4 and downstream NFκB signalling induces expression and secretion of alkaline phosphatase that can be quantified via colorimetric assay. HEK-Blue cells were treated for 24 hours with 19 nM of NAMPTcif or PIGF-NAMPTcif plus 5 ug/ml polymyxin B to ensure no TLR4 activation by any trace amounts of endotoxin. TLR4 activity was reported as the equivalent amount of activation by bacterial lipopolysaccharides (LPS), thus a standard curve was generated by serial dilutions of LPS from 0.01 to 20 ng/ml. Detection of alkaline phosphatase activity was performed using a QUANTI-Blue kit (InvivoGen) according to manufacturer's instructions and plates were read using a Synergy H1 plate reader (BioTek). Data were presented as equivalent LPS concentration in ng/ml. A one-way ANOVA with Dunnett's multiple comparisons test was performed to determine statistical significance.

[4] = test system: Human primary satellite cells; assay: Human primary satellite cell proliferation, CyQuant; type: cell-based; settings: 20 nM; 48 hours; media with IGF-1 and FGF-2
Description: (§1) FIG. 8. Human NAMPT variants stimulate human satellite cell proliferation. Human primary satellite cells were treated with 20 nM full length NAMPT (NAMPT) or NAMPT variants (NAMPTxxx-xxx, where xxx are amino acid numbers) for 48 hours. The media contained the growth factors IGF-1 and FGF-2 as well. Quantification of cell proliferation was performed using CyQuant Proliferation Assay kit. […] Treatment with 20% FBS was used as a positive control. Box and whiskers denote median with minimum and maximum values. n=6-10 independent experiments per protein. Statistical significance is indicated as p-value and determined by one-sample t-test.
The inventors next sought to compare the activity of full length NAMPT, NAMPT402-491 and NAMPT422-491 on human satellite cell proliferation. Human primary satellite cells were treated with 20 nM full length NAMPT (NAMPT) or NAMPT402-491 and NAMPT422-491 for 48 hours.

[5] = test system: Human primary endothelial cells derived from umbilical vein; assay: Human primary endothelial cell proliferation, CyQuant; type: cell-based; settings: 20 nM; 48 hours
Description: as §1, with “9.” for “8.”, “endothelial” for “satellite”, “cells derived from umbilical vein” for “cells”, “hours.” for “hours. The media contained the growth factors IGF-1 and FGF-2 as well.”, “10%” for “20%”, “n=6” for “n=6-10”
Similarly, the inventors next investigated the activity of full length NAMPT, NAMPT402-491 and NAMPT422-491 on human endothelial cell proliferation. Human endothelial cells were derived from umbilical vein and treated with 20 nM full length NAMPT (NAMPT) or NAMPT variants for 48 hours.

[6] = test system: needle-stab muscle injury in zebrafish larvae; assay: Larval zebrafish muscle injury and EdU pulse-chase; type: in vivo; settings: 57 nM in Ringer's solution immediately after injury at 4 dpf; EdU at 2 dpi
Description: Zebrafish larvae (4 dpf) were anaesthetized in 0.01% tricaine (MS-222) (Sigma-Aldrich) in Ringer's solution. Needle-stab injury was carried out in the dorsal myotome, consisting in a single 30-gauge needle puncture that generates an extensive injury with many damaged muscle fibres. Nampt fragment treatments were carried out by incubating 4 dpf needle-stab-injured larvae in 57 nM Nampt in Ringer's solution immediately after injury. Needle-stab-injured larvae at 6 dpf (2 dpi) were transferred into Ringer's solution containing 50 μg ml-1 EdU (Thermo Fisher Scientific) for 1 h and chased for a further 1.5 h before fixation. Samples were developed using the Click-iT EdU Alexa Fluor 647 imaging Kit (Thermo Fisher Scientific) following the manufacturer's protocol, followed by a phalloidin immunostaining (Thermo Fisher Scientific). EdU+ cells in a region encompassing two myotomes on either side of the injury were quantified as the number of EdU+ cells outside the injury region. EdU+ cells in the caudal haematopoietic tissue were excluded from this analysis. Statistical analysis has been conducted using Two-way ANOVA with Tuckey's multiple comparison test.

T1 sequence (P51682 whole entry): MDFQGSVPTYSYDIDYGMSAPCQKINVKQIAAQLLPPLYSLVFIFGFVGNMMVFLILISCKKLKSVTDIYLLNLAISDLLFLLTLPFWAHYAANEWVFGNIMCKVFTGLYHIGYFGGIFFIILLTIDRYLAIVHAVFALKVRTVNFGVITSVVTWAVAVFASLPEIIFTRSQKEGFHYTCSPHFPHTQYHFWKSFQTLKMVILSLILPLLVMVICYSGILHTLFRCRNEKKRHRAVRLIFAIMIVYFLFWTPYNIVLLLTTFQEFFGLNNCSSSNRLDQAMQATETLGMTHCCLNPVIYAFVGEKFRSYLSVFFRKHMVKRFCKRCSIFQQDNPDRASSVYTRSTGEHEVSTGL

B1: NAMPT402-491: Human NAMPT cytokine finger, residues 402-491 of full length NAMPT, SEQ ID NO: 1 (protein, listed as Homo sapiens)
chain: SYVVTNGLGINVFKDPVADPNKRSKKGRLSLHRTPAGNFVTLEEGKGDLEEYGQDLLHTVFKNGKVTKSYSFDEIRKNAQLNIELEAAHH
In the case of B1, the “inhibition of NAMPT binding to CCR5” value [1] is reported as “inhibits the binding of NAMPT to CCR5”, the “cell proliferation, percentage increase vs PBS-treated control” value ([2]; 10 nM, compared with full length NAMPT, listed as cif) is reported as “stimulates satellite cell proliferation in a dose-dependent manner” and the “cell proliferation, percentage increase vs PBS-treated control” value ([2]; 10 nM, compared with full length NAMPT, listed as hNAMPTcif) is reported as “enhanced stimulated satellite cell proliferation compared to full length hNAMPT”. For the same molecule, the “cell proliferation, percentage increase vs PBS-treated control” value ([2]; 20 nM, compared with full-length NAMPT) was “enhanced cellular proliferation compared to full-length NAMPT”, the “TLR4 activation (equivalent LPS concentration)” value [3] was “does not induce TLR4 activity compared to full length NAMPT; also recorded: abrogated TLR4 activity” and the “satellite cell proliferation, percentage increase vs PBS-treated control” value [4] was “increased satellite cell proliferation compared to full length NAMPT”. For the same molecule, the “endothelial cell proliferation, percentage increase vs PBS-treated control” value [5] was “increased endothelial cell proliferation compared to full length NAMPT and NAMPT422-491” and the “cell proliferation (EdU-positive cells) within the injury zone” value [6] was “significant increase in cell proliferation within the injury zone”.
